Assays:
[1] = molecular target: PD-1 on in vitro activated primary human T cells (human) (UniProt Q15116); assay: flow cytometry, PD-1 staining of Ki-67 positive activated T cells, average over the non-PD-1-binding treatments
[2] = molecular target: PD-1 on in vitro activated primary human T cells (human) (UniProt Q15116); assay: flow cytometry, PD-1 staining of activated T cells treated with RV1 precomplexed with IL-15, 10 nM
[3] = molecular target: PD-1 on in vitro activated primary human T cells (human) (UniProt Q15116); assay: flow cytometry, PD-1 staining of activated T cells, media only
[4] = molecular target: PD-1 on in vitro activated primary human T cells (human) (UniProt Q15116); assay: flow cytometry, PD-1 staining of activated T cells treated with RV2 precomplexed with IL-15, 10 nM
[5] = molecular target: PD-1 on in vitro activated primary human T cells (human) (UniProt Q15116); assay: flow cytometry, PD-1 staining of activated T cells treated with RV1 precomplexed with IL-15, 100 nM
[6] = molecular target: PD-1 on in vitro activated primary human T cells (human) (UniProt Q15116); assay: flow cytometry, PD-1 staining of activated T cells treated with IL-15 10 nM
[7] = molecular target: PD-1 on in vitro activated primary human T cells (human) (UniProt Q15116); assay: flow cytometry, PD-1 staining of activated T cells treated with IL-15Rα-Fc precomplexed with IL-15, 10 nM
[8] = molecular target: PD-1 on in vitro activated primary human T cells (human) (UniProt Q15116); assay: flow cytometry, PD-1 staining of activated T cells treated with IL-15 100 nM
[9] = molecular target: PD-1 on in vitro activated primary human T cells (human) (UniProt Q15116); assay: flow cytometry, PD-1 staining of activated T cells treated with IL-15 1 nM
[10] = molecular target: PD-1 on in vitro activated primary human T cells (human) (UniProt Q15116); assay: flow cytometry, PD-1 staining of activated T cells treated with RV2 precomplexed with IL-15, 1 nM
[11] = molecular target: PD-1 on in vitro activated primary human T cells (human) (UniProt Q15116); assay: flow cytometry, PD-1 staining of activated T cells treated with RV1 precomplexed with IL-15, 1 nM
[12] = molecular target: PD-1 on in vitro activated primary human T cells (human) (UniProt Q15116); assay: flow cytometry, PD-1 staining of activated T cells treated with IL-15Rα-Fc precomplexed with IL-15, 1 nM
[13] = molecular target: PD-1 on in vitro activated primary human T cells (human) (UniProt Q15116); assay: flow cytometry, PD-1 staining of activated T cells treated with RV2 precomplexed with IL-15, 100 nM
[14] = molecular target: PD-1 on in vitro activated primary human T cells (human) (UniProt Q15116); assay: flow cytometry, PD-1 staining of activated T cells treated with IL-15Rα-Fc precomplexed with IL-15, 100 nM

Sequence of PD-1 on in vitro activated primary human T cells (human) (Q15116 25-288): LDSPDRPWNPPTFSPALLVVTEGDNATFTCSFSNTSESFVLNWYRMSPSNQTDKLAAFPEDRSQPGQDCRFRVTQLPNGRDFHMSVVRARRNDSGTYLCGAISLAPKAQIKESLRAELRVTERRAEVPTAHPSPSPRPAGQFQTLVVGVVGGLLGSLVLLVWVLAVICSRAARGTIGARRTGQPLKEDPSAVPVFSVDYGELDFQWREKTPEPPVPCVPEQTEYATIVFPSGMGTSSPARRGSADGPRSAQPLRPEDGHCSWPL

B1: PD-1 detection antibody (clone EH12.2H7) (antibody, from another filing, V domains shown)
VH: QVQLQQSGAELAKPGASVQMSCKASGYSFTSSWIHWVKQRPGQGLEWIGYIYPSTGFTEYNQKFKDKATLTADKSSSTAYMQLSSLTSEDSAVYYCARWRDSSGYHAMDYWGQGTSVTVSS
VL: DIVLTQSPASLTVSLGQRATISCRASQSVSTSGYSYMHWYQQKPGQPPKLLIKFGSNLESGIPARFSGSGSGTDFTLNIHPVEEEDTATYYCQHSWEIPYTFGGGTKLEIK
**Q.** How did the MFI of PD-1 staining, average, CD4+ cells [1] turn out when B1 was run?
**A.** Its MFI of PD-1 staining, average, CD4+ cells is 4830 MFI.

**Q.** And the MFI of PD-1 staining, average, CD8+ cells [1]?
**A.** The MFI of PD-1 staining, average, CD8+ cells was 2190 MFI.

**Q.** And the MFI of PD-1 in Ki-67 positive CD4+ T cells [2]?
**A.** The MFI of PD-1 in Ki-67 positive CD4+ T cells was 4620 MFI.

**Q.** And the MFI of PD-1 in Ki-67 positive CD8+ T cells [2]?
**A.** Its MFI of PD-1 in Ki-67 positive CD8+ T cells is 1890 MFI.

**Q.** What about the MFI of PD-1 in Ki-67 positive CD4+ T cells [3] of the same binder?
**A.** The MFI of PD-1 in Ki-67 positive CD4+ T cells was 4020 MFI.

**Q.** What about the MFI of PD-1 in Ki-67 positive CD8+ T cells [3] of the same binder?
**A.** Its MFI of PD-1 in Ki-67 positive CD8+ T cells is 2250 MFI.

**Q.** And the MFI of PD-1 in Ki-67 positive CD4+ T cells [4]?
**A.** Its MFI of PD-1 in Ki-67 positive CD4+ T cells is 5070 MFI.

**Q.** And the MFI of PD-1 in Ki-67 positive CD8+ T cells [4]?
**A.** Its MFI of PD-1 in Ki-67 positive CD8+ T cells is 2020 MFI.

**Q.** What about the MFI of PD-1 in Ki-67 positive CD4+ T cells [5] of the same binder?
**A.** Its MFI of PD-1 in Ki-67 positive CD4+ T cells is 4830 MFI.

**Q.** And the MFI of PD-1 in Ki-67 positive CD8+ T cells [5]?
**A.** Its MFI of PD-1 in Ki-67 positive CD8+ T cells is 2370 MFI.

**Q.** And the MFI of PD-1 in Ki-67 positive CD4+ T cells [6]?
**A.** Its MFI of PD-1 in Ki-67 positive CD4+ T cells is 6440 MFI.

**Q.** And the MFI of PD-1 in Ki-67 positive CD8+ T cells [6]?
**A.** The MFI of PD-1 in Ki-67 positive CD8+ T cells was 3190 MFI.

**Q.** And the MFI of PD-1 in Ki-67 positive CD4+ T cells [7]?
**A.** The MFI of PD-1 in Ki-67 positive CD4+ T cells was 4480 MFI.

**Q.** What about the MFI of PD-1 in Ki-67 positive CD8+ T cells [7] of the same binder?
**A.** The MFI of PD-1 in Ki-67 positive CD8+ T cells was 2120 MFI.

**Q.** And the MFI of PD-1 in Ki-67 positive CD4+ T cells [8]?
**A.** Its MFI of PD-1 in Ki-67 positive CD4+ T cells is 6550 MFI.

**Q.** And the MFI of PD-1 in Ki-67 positive CD8+ T cells [8]?
**A.** Its MFI of PD-1 in Ki-67 positive CD8+ T cells is 3220 MFI.

**Q.** And the MFI of PD-1 in Ki-67 positive CD4+ T cells [9]?
**A.** The MFI of PD-1 in Ki-67 positive CD4+ T cells was 4870 MFI.

**Q.** And the MFI of PD-1 in Ki-67 positive CD8+ T cells [9]?
**A.** Its MFI of PD-1 in Ki-67 positive CD8+ T cells is 2050 MFI.

**Q.** And the MFI of PD-1 in Ki-67 positive CD4+ T cells [10]?
**A.** The MFI of PD-1 in Ki-67 positive CD4+ T cells was 4200 MFI.

**Q.** What about the MFI of PD-1 in Ki-67 positive CD8+ T cells [10] of the same binder?
**A.** Its MFI of PD-1 in Ki-67 positive CD8+ T cells is 1920 MFI.

**Q.** What about the MFI of PD-1 in Ki-67 positive CD4+ T cells [11] of the same binder?
**A.** The MFI of PD-1 in Ki-67 positive CD4+ T cells was 4100 MFI.

**Q.** What about the MFI of PD-1 in Ki-67 positive CD8+ T cells [11] of the same binder?
**A.** Its MFI of PD-1 in Ki-67 positive CD8+ T cells is 1870 MFI.

**Q.** What about the MFI of PD-1 in Ki-67 positive CD4+ T cells [12] of the same binder?
**A.** Its MFI of PD-1 in Ki-67 positive CD4+ T cells is 4280 MFI.

**Q.** What about the MFI of PD-1 in Ki-67 positive CD8+ T cells [12] of the same binder?
**A.** The MFI of PD-1 in Ki-67 positive CD8+ T cells was 1690 MFI.

**Q.** What about the MFI of PD-1 in Ki-67 positive CD4+ T cells [13] of the same binder?
**A.** The MFI of PD-1 in Ki-67 positive CD4+ T cells was 5840 MFI.

**Q.** And the MFI of PD-1 in Ki-67 positive CD8+ T cells [13]?
**A.** The MFI of PD-1 in Ki-67 positive CD8+ T cells was 2820 MFI.

**Q.** What about the MFI of PD-1 in Ki-67 positive CD4+ T cells [14] of the same binder?
**A.** The MFI of PD-1 in Ki-67 positive CD4+ T cells was 4380 MFI.

**Q.** What about the MFI of PD-1 in Ki-67 positive CD8+ T cells [14] of the same binder?
**A.** Its MFI of PD-1 in Ki-67 positive CD8+ T cells is 2110 MFI.

Source: patent publication US20250313620A1
